In patent publication US20120164688A1 (Regeneron, published 2012):

B1: REGN475 (antibody, human IgG4 S228P)
heavy: not shown
VL: DIQMTQSPSSLSASAGDRVTITCRASQAIRNDLGWYQQKPGKAPKRLIYAAFNLQSGVPSRFSGSGSGTEFTLTISSLQPEDLASYYCQQYNRYPWTFGQGTKVEIKR
B2: human neurotrophin-3 (NT-3) (ligand, UniProt P20783 139-257, looked up)
chain: YAEHKSHRGEYSVCDSESLWVTDKSSAIDIRGHQVTVLGEIKTGNSPVKQYFYETRCKEARPVKNGCRGIDDKHWNSQCKTSQTYVRALTSENNKLVGWRWIRIDTSCVCALSRKIGRT
notes: also called human NT-3

What was measured:
[1] = target: B2; assay: BIACORE; 20 nM NT-3 + 500 nM agent, % NT-3 bound to TrkB-hFc chip
Procedure: (§1) Human TrkA-hFc (9300 RU), human TrkB-hFc (6000 RU), human TrkC-hFc (9100 RU) and human p75-hFc (7500 RU) were covalently coupled to BIACORE® CM5 chip surfaces by amine-coupling procedure. […] The binding mixture was first incubated at room temperature to reach equilibrium (about 1 hr) and then was injected over the above TrkA-hFc, TrkB-hFc, TrkC-hFc and p75-hFc surfaces.

[2] = target: B2; assay: BIACORE; 20 nM NT-3 + 500 nM agent, % NT-3 bound to p75-hFc chip
Procedure: as §1

[3] = target: B2; assay: BIACORE; 20 nM NT-3 + 500 nM agent, % NT-3 bound to TrkC-hFc chip
Procedure: as §1

[4] = target: B2; assay: BIACORE; 20 nM NT-3 + 500 nM agent, % NT-3 bound to TrkA-hFc chip
Procedure: as §1

[5] = target: T1, human nerve growth factor (NGF) (human, UniProt P01138 122-241); assay: BIACORE blocking; % free NGF bound to p75-hFc chip
T1 construct: range 122-241; biotin-labeled in OCTET and ELISA assays; also called human NGF; biotin-NGF
T1 sequence (P01138 122-241 limits assumed): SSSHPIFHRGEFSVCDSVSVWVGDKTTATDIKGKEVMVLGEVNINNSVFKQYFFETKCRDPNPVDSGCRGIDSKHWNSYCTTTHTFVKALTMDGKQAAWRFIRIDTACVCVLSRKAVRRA
From the text: (§2) To identify blocking antibodies, a receptor blocking assay was designed using a BIACORE™ 3000 instrument. Recombinant human TrkA-hFc and human p75-hFc proteins were amine-coupled to a CM5 chip to a density of about 5000-6000 RU.

[6] = target: T1, human nerve growth factor (NGF); assay: BIACORE SPR; purified mAb
T1 sequence (P01138 122-241 limits assumed): as above
Procedure: (§3) Antibodies were captured on either a goat, anti-human or anti-mouse IgG polyclonal antibody surface created by direct amine coupling of the capture antibody to a BIACORE™ chip. […] Kinetic analysis was performed to obtain the equilibrium dissociation constant (KD) and dissociation rate constant, and the latter was used to calculate the antigen/antibody complex dissociation t_{1/2} (Table 1).

rat NGF (rNGF) [7] = target: T2, rat NGF (rNGF) (rat, UniProt P25427 122-241, limits assumed); assay: BIACORE SPR; purified mAb
T2 sequence (P25427 122-241 limits assumed): as the sequence (P01138 122-241 limits assumed) above, with S3T, I6V, R9M, M37T, D60A, D65E, M92T, G94D, V117A, A120G counted along it

mouse NGF (mNGF) [8] = target: T3, mouse NGF (mNGF) (mouse, UniProt P01139 122-241, limits assumed); assay: BIACORE SPR; purified mAb
T3 sequence (P01139 122-241 limits assumed): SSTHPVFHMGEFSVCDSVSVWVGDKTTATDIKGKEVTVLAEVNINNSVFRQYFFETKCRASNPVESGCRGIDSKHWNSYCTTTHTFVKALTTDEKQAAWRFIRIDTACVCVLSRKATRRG

[9] = target: T1, human nerve growth factor (NGF); assay: BIACORE SPR; purified mAb; remark: listed apart in the source
[10] = target: B2; assay: BIACORE SPR
[11] = target: T1, human nerve growth factor (NGF); assay: competition ELISA; 50 pM biotin-NGF, hp75-hFc plate
Procedure: (§4) Specifically, the microtiter plates were prepared by coating the plates with 0.5 μg/ml hTrkA-hFc or 1 μg/ml hp75-hFc solution in PBS buffer overnight at 4° C., followed by blocking the plates with 0.5% BSA prior to use.

[12] = target: T1, human nerve growth factor (NGF); assay: BIACORE blocking; % free NGF bound to TrkA-hFc chip
From the text: as §2

[13] = target: T1, human nerve growth factor (NGF); assay: competition ELISA; 50 pM biotin-NGF, hTrkA-hFc plate
Procedure: as §4

[14] = target: T1, human nerve growth factor (NGF); assay: BIACORE SPR; mAb captured, 20 nM NGF
Procedure: (§5) Briefly, goat anti-human IgG polyclonal antibody was chemically linked to a CM5 chip. […] Both association and dissociation phases were monitored and data were analyzed.

[15] = target: T1, human nerve growth factor (NGF); assay: cell-based or functional assay
[16] = target: B2; assay: BIACORE SPR; mAb captured, NT-3 injected
Procedure: as §5

[17] = target: T1, human nerve growth factor (NGF); assay: BIACORE SPR; mAb captured, human NGF injected
Procedure: as §3

[18] = target: T1, human nerve growth factor (NGF); assay: BIACORE SPR; complex dissociation half-life
Procedure: as §3

rat NGF (rNGF) [19] = target: T2, rat NGF (rNGF); assay: BIACORE SPR
Procedure: as §3
(§6) The binding affinities of the antibodies to both mNGF and rNGF were determined as described above.

mouse NGF (mNGF) [20] = target: T3, mouse NGF (mNGF); assay: BIACORE SPR
Procedure: as §3, §6

[21] = target: T1, human nerve growth factor (NGF); assay: BIACORE SPR
Procedure: as §3, §6

[22] = target: T1, human nerve growth factor (NGF); assay: cell-based or functional assay; remark: listed apart in the source
[23] = target: B2; assay: OCTET solution competition against biotin-NGF sensor
Procedure: (§7) Changes in the thickness of the biological layer were measured after incubation. The binding was normalized as a percentage of binding relative to the binding of antibody in absence of competitor.

REGN475 = target: B1; assay: OCTET; % REGN475 binding to biotin-NGF sensor, no competitor (reference)
Procedure: as §7

[24] = target: T4, humanized anti-human NGF monoclonal antibody E3 ("RN624") (tanezumab; CAS Registry No. 880266-57-9); assay: OCTET; % RN624 binding to biotin-NGF sensor, no competitor (reference)
T4 construct: control antibody; also called Control (RN624); Control mAb (RN624)
Procedure: as §7

Row | Binder | % binding [1] [%] | % binding [3] [%] | % binding [4] [%] | % Binding p75-hFc [5] [%] | Kd [6] [pM] | t1/2 [6] [h] | Kd (rat NGF (rNGF) [7]) [pM] | Kd (mouse NGF (mNGF) [8]) [pM] | Kd [9] [pM] | binding result [10] | IC50 [11] [pM] | % Binding TrkA-hFc [12] [%] | IC50 [13] [pM] | IC50 (pM), PC12 SRE-luciferase [22] [pM] | other results
1 | recombinant human TrkA-hFc (Fc fusion, UniProt P04629 33-423, looked up, extracellular domain; dimeric fusion protein; also called hTrkA-hFc; not shown: Fc portion of human IgG1) AAPCPDACCPHGSSGLRCTRDGALDSLHHLPGAENLTELYIENQQHLQHLELRDLRGLGELRNLTIVKSGLRFVAPDAFHFTPRLSRLNLSFNALESLSWKTVQGLSLQELVLSGNPLHCSCALRWLQRWEEEGLGGVPEQKLQCHGQGPLAHMPNASCGVPTLKVQVPNASVDVGDDVLLRCQVEGRGLEQAGWILTELEQSATVMKSGGLPSLGLTLANVTSDLNRKNVTCWAENDVGRAEVSVQVNVSFPASVQLHTAVEMHHWCIPFSVDGQPAPSLRWLFNGSVLNETSFIFTEFLEPAANETVRHGCLRLNQPTHVNNGNYTLLAANPFGQASASIMAAFMDNPFEFNPEDPIPVSFSPVDTNSTSGDPVEKKDETPFGVSVAVG | 5 | 3 | 21 | – | – | – | – | – | – | – | – | – | – | – | % binding [2]: 7%
2 | REGN476 (antibody, human IgG4 S228P, V domains shown) VH: EVQLVESGGGLVQPGRSLRLSCAAPGFNFDDYAMHWVRQAPGKGLEWVSGISWNSGTIGYADSVKGRFTISRDNAKNSLYLQMNSLRAEDTALYYCAKEGVWFGKLFSSYGMDVWGQGTTVTVSS VL: not shown | – | – | – | 13 | 8.91 | 4 | 155 | 115 | 8.91 | no binding (tested: 1.25 nM to 40 nM) | 61 | 6 | 65 | – | –
3 | REGN477 (antibody, human IgG4 S228P) heavy: not shown VL: EIVMTQSPATLSVSPGERATLSCRASQSVTYNLDWYQQKPGQAPRLLIFGASTRATGIPARFSGSGSGTEFTLTITSLQSEDFAVYYCQQYNNWPYTFGQGTKLEIKR | – | – | – | 13 | 7.98 | 4 | 164 | 133 | 7.98 | no binding (tested: 1.25 nM to 40 nM) | 62 | 9 | 65 | – | –
4 | 301272-3H10-A10 (antibody, also called REGN261) heavy: not shown VL: DIRMTQSPSSLSASAGDRVTITCRASQAIRNDLGWYQQKPGKAPKRLIYAAFNLQSGVPSRFSGSGSGTEFTLTISSLQPEDLASYYCQQYNRYPWTFGQGTKLEIK | – | – | – | 2 | – | – | – | – | – | – | – | 1 | – | – | Kd [14]: 0.1 pM; MG87 IC50 [15]: < 186 pM; PC12 IC50 [15]: 9 pM; binding result [16]: no binding (tested: 20 nM); Kd [17]: 0.1 pM; t1/2 [18]: 25.2 h; Kd (rat NGF (rNGF) [19]): 0.6 pM; Kd (mouse NGF (mNGF) [20]): 0.2 pM; Kd [21]: 0.1 pM
5 | REGN472 (antibody, human IgG1) heavy: not shown VL: DIQMTQSPSSLSASVGDRVTITCRASQAIRNDLGWYQQKPGKAPKRLIYAAFNLQSGVPSRFSGSGSGTEFTLTISSLQPEDFATYYCQQYNRYPWTFGQGTKVEIKR | – | – | – | 7 | 0.41 | 30 | 3.96 | 0.61 | 0.41 | no binding (tested: 1.25 nM to 40 nM) | 12 | 4 | 12 | 4.5 | –
6 | REGN474 (antibody, human IgG4 S228P) heavy: not shown VL: DIQMTQSPSSLSASVGDRVTITCRASQAIRNDLGWYQQKPGKAPKRLIYAAFNLQSGVPSRFSGSGSGTEFTLTISSLQPEDFATYYCQQYNRYPWTFGQGTKVEIKR | – | – | – | 9 | 0.41 | 31 | 3.42 | 0.43 | 0.41 | no binding (tested: 1.25 nM to 40 nM) | 6.3 | 6 | 8.1 | 6.6 | –
7 | B1 | 99 | 101 | 90 | 10 | 0.18 | 57 | 0.93 | 0.36 | 0.18 | – | 22 | 6 | 20 | 9.6 | binding result [23]: no binding (tested: 0 to 4 µM)
8 | human brain derived neurotrophic factor (hBDNF) (ligand, UniProt P23560 129-247, looked up) HSDPARRGELSVCDSISEWVTAADKKTAVDMSGGTVTVLEKVPVSKGQLKQYFYETKCNPMGYTKEGCRGIDKRHWNSQCRTTQSYVRALTMDSKKRIGWRFIRIDTSCVCTLTIKRGR | – | – | – | – | – | – | – | – | – | – | – | – | – | – | REGN475 % Binding (REGN475): 100%; RN624 % Binding [24]: 100%
9 | B2 | – | – | – | – | – | – | – | – | – | – | – | – | – | – | REGN475 % Binding (REGN475): 100%; RN624 % Binding [24]: 100%
10 | recombinant human p75-hFc (Fc fusion, UniProt P08138 29-250, looked up, extracellular domain; dimeric fusion protein; also called hp75-hFc; not shown: Fc portion of human IgG1) KEACPTGLYTHSGECCKACNLGEGVAQPCGANQTVCEPCLDSVTFSDVVSATEPCKPCTECVGLQSMSAPCVEADDAVCRCAYGYYQDETTGRCEACRVCEAGSGLVFSCQDKQNTVCEECPDGTYSDEANHVDPCLPCTVCEDTERQLRECTRWADAECEEIPGRWITRSTPPEGSDSTAPSTQEPEAPPEQDLIASTVAGVVTTVMGSSQPVVTRGTTDN | 2 | 2 | 14 | – | – | – | – | – | – | – | – | – | – | – | % binding [2]: 4%
